In US20230151079A1 (FUNDA O BUTANTAN, published 2023):

Key:
[1] = target: T1, thrombin (Homo sapiens (Human), UniProt P00734 315-363; P00734 364-622); test: cell-based or functional assay
[2] = target: T1, thrombin; test: calculated from kon and koff (equation 7)
[3] = target: T1, thrombin; test: enzyme kinetics, S-2238 hydrolysis by thrombin; Morrison tight binding equation
[4] = target: T1, thrombin; test: enzyme kinetics, S-2238 hydrolysis by thrombin; nonlinear regression for competing enzyme inhibition
[5] = target: T1, thrombin; test: progress curves of S-2238 hydrolysis by thrombin; kobs plotted against recombinant protein concentration
[6] = target: T1, thrombin; test: enzyme kinetics, S-2238 hydrolysis by thrombin 0.1 nM; apparent Km from Lineweaver-Burk plots against inhibitor concentration; competing inhibition

B1: Recombinant protein fragment of HPLC peak H1 generated by factor Xa (SEQ ID NO: 10) (peptide)
peptide: GKPQGHPHDALEARSDAVHTAVPKMPKGGHGGFEPIPIDYDERALEAR
thrombin inhibition activity retained, relative to non-hydrolyzed recombinant protein (S-2238 hydrolysis, thrombin 0.1 nM, fragment 100 pM) [1]: ~50 % of preserved recombinant protein

B2: Recombinant protein (SEQ ID NO: 1), modified from sculptin of the tick Amblyomma cajennense (other)
chain: GKPQGHPHDALEARSDAVHTAVPKMPKGGHGGFEPIPIDYDERALEARSDAVHTAVPKMPKGGLGGFEPIPIDYDERALEARSDAVHTAVPKMPKGGHGGFEPIPIDYDERALEARSDAVHTAVPKMPKGGHGGFEPIPIDYDERALHALEHHHHHH
notes: Expressed in E. coli BL21(DE3) from pET28a, without signal peptide and with a C-terminal polyhistidine tail; Mass 16990.90 Da by MALDI-TOF; also called Scpt; preserved recombinant protein
IC50 of thrombin inhibition (hydrolysis of S-2238 by thrombin 0.1 nM) [1]: 86.6 pM | Ki [2]: 0.0161 nM | Ki [3]: 0.0195 nM | Ki [4]: 0.0181 nM | koff [5]: 0.00065 s⁻¹ | kon [5]: 4.04e+07 M⁻¹ s⁻¹ | Ki [6]: 0.0185 nM
